Test results: PMC5648539 (Science signaling, 2017)

Biological target: wild-type CXCL12 (stromal cell-derived factor-1) (UniProt P48061-2 22-89)
Test: radioligand binding

Binder | Kd
FLAG-tagged human CXCR4, wild type (receptor, UniProt P61073 1-352, looked up) MEGISIYTSDNYTEEMGSGDYDSMKEPCFREENANFNKIFLPTIYSIIFLTGIVGNGLVILVMGYQKKLRSMTDKYRLHLSVADLLFVITLPFWAVDAVANWYFGNFLCKAVHVIYTVNLYSSVLILAFISLDRYLAIVHATNSQRPRKLLAEKVVYVGVWIPALLLTIPDFIFANVSEADDRYICDRFYPNDLWVVVFQFQHIMVGLILPGIVILSCYCIIISKLSHSKGHQKRKALKTTVILILAFFACWLPYYIGISIDSFILLEIIKQGCEFENTVHKWISITEALAFFHCCLNPILYAFLGAKFKTSAQHALTSVSRGSSLKILSKGKRGGHSSVSTESESSSFHSS | 1.45 nM
FLAG-tagged human CXCR4 Ile4Glu/Ile6Glu (receptor, UniProt P61073 1-352, looked up) MEGESEYTSDNYTEEMGSGDYDSMKEPCFREENANFNKIFLPTIYSIIFLTGIVGNGLVILVMGYQKKLRSMTDKYRLHLSVADLLFVITLPFWAVDAVANWYFGNFLCKAVHVIYTVNLYSSVLILAFISLDRYLAIVHATNSQRPRKLLAEKVVYVGVWIPALLLTIPDFIFANVSEADDRYICDRFYPNDLWVVVFQFQHIMVGLILPGIVILSCYCIIISKLSHSKGHQKRKALKTTVILILAFFACWLPYYIGISIDSFILLEIIKQGCEFENTVHKWISITEALAFFHCCLNPILYAFLGAKFKTSAQHALTSVSRGSSLKILSKGKRGGHSSVSTESESSSFHSS | 45.7 nM
